The values below come from patent publication US20240181084.

The data set has as its system TALEN-integrase (HIV IN deltaC) fusion pair targeting eGFP, 16 bp spacer. As to the kind of experiment: cell_activity. Particulars: chloramphenicol-resistant colonies vs untargeted integrase; COS-7 plasmid integration assay.

As to eGFP TALEN pair target, 16 bp spacer, the activity amounted to 6 fold.
